Columns and labels:
[1] = target: broadly neutralizing anti-E2 murine monoclonal antibody AP33 (IgG); experiment: competition ELISA; conditions: peptide 10 µg/ml (highest concentration); binding to E2661 read; parent: est. 5; read off a plot
[2] = target: AP33 heavy chain mutant I95 (human-mouse chimeric AP33, residue changed to alanine) (mouse | human); experiment: ELISA
[3] = target: AP33 heavy chain mutant T97 (human-mouse chimeric AP33, residue changed to alanine) (mouse | human); experiment: ELISA
[4] = target: AP33 heavy chain mutant Y53 (human-mouse chimeric AP33, residue changed to alanine) (mouse | human); experiment: ELISA
[5] = target: AP33 light chain mutant D94 (human-mouse chimeric AP33, residue changed to alanine) (mouse | human); experiment: ELISA
[6] = target: AP33 light chain mutant N30 (human-mouse chimeric AP33, residue changed to alanine) (mouse | human); experiment: ELISA
[7] = target: AP33 light chain mutant N92 (human-mouse chimeric AP33, residue changed to alanine) (mouse | human); experiment: ELISA
[8] = target: AP33 light chain mutant V93 (human-mouse chimeric AP33, residue changed to alanine) (mouse | human); experiment: ELISA
[9] = target: AP33 light chain mutant Y28 (human-mouse chimeric AP33, residue changed to alanine) (mouse | human); experiment: ELISA
MAb ALP98 = experiment: ELISA; conditions: parent: est. 100; read off a plot
[10] = target: soluble HCV E2 that lacks the transmembrane domain (E2_(661)), monomeric (Hepatitis C virus genotype 1a strain …, UniProt P27958); experiment: SPR; conditions: both partners purified

Molecule E2 412-423 WT peptide W420R has an other: E2 Binding (%) remaining after peptide competition [1] of 86%.

Work on “E2 (as tested on wild type and mutant AP33 in Table 1) (from UniProt P27958 384-746) (natural protein)” yielded a Relative strength of binding (%) (% of binding to WT AP33) [2] of 10, a Relative strength of binding (%) (% of binding to WT AP33) [3] of 101 and a Relative strength of binding (%) (% of binding to WT AP33) [4] of 100. It also gave a Relative strength of binding (%) (% of binding to WT AP33) [5] of 74, a Relative strength of binding (%) (% of binding to WT AP33) [6] of 89 and a Relative strength of binding (%) (% of binding to WT AP33) [7] of 60. It also gave a Relative strength of binding (%) (% of binding to WT AP33) [8] of 79 and a Relative strength of binding (%) (% of binding to WT AP33) [9] of 112.

E2 WT I414A gave a percent of parent (MAb ALP98) of 96%.

Work on E2 WT S424A yielded a percent of parent (MAb ALP98) of 96%.

B1: broadly neutralizing anti-E2 murine monoclonal antibody AP33 (IgG) (antibody, V domains shown)
VH: EVQLQESGPSLVKPSQTLSLTCSVTGDSITSGYWNWIRKFPGNKLEYMGYISYSGSTYYNLSLRSRISITRDTSKNQYYLQLNSVTTEDTATYYCALITTTTYAMDYWGQGTSVTVSS
VL: NIVLTQSPVSLAVSLGQRATISCRASESVDGYGNSFLHWFQQKPGQPPKLLIYLASNLNSGVPARFSGSGSRTDFTLTIDPVEADDAATYYCQQNNVDPWTFGGGTKLEIK
In the case of B1, the Kd [10] is reported as 3.4 nM, the koff [10] is reported as 0.000542 s⁻¹ and the kon [10] is reported as 160000 M⁻¹ s⁻¹.

Source: article PMC7794244, “Development of a structural epitope mimic: an idiotypic approach to HCV vaccine design” (NPJ Vaccines, 2021)
